Reference: publication PMC3018548 (Archives of biochemistry and biophysics, 2010)

Molecular target: the molecule itself
Assay: protein concentration dependence of fluorimetric metal uptake kinetics

B1: Escherichia coli apo-manganese superoxide dismutase (wt apo-MnSOD) (enzyme, UniProt P00448 1-206, looked up)
chain: MSYTLPSLPYAYDALEPHFDKQTMEIHHTKHHQTYVNNANAALESLPEFANLPVEELITKLDQLPADKKTVLRNNAGGHANHSLFWKGLKKGTTLQGDLKAAIERDFGSVDNFKAEFEKAAASRFGSGWAWLVLKGDKLAVVSTANQDSPLMGEAISGASGFPIMGLDVWEHAYYLKFQNRRPDYIKEFWNVVNWDEAAARFAAKK
B1 was tested, and the Kd was 6.6 ± 0.9 µM.
